Experimental findings from US20240400621A1, “PEPTIDES FOR METABOLIC SYNDROME” (ALPARIS, S.A. de C.V., priority 2021, published 2024) are described below.

The target in assay [1] is human Toll-like receptor 2 (hTLR2) on HEK-Blue hTLR2 cells (human (printed as hTLR2), UniProt O60603 21-784). In words: cell-based or functional assay.
The target in assay [2] is T1, hTLR2 (Homo sapiens, UniProt O60603).
T1 construct: expressed in transfected cells; host or cells: HEK-Blue hTLR2 cells
The assay is described as follows: hTLR2 stimulation in HEK-Blue hTLR2 cells (NF-κβ/SEAP reporter, QUANTI-Blue). It is filed as cell-based. On the procedure: The analysis of the biological activity of the protein of SEQ ID NO. 1 was performed via an in vitro Toll-like receptors (TLRs) recognition assay. The HEK-Blue hTLR2 cell line expressing the hTLR2 receptor was used, whose stimulation activates the NF-Kβ factor, which in turn induces the production of the reporter protein, secreted embryonic alkaline phosphatase (SEAP). The SEAP levels are quantified by a colorimetric method with the reagent QUANTI-Blue and correspond to hTLR2 stimulation levels. The HEK-Blue hTLR2 cell line was thawed and propagated to make a master cell bank. From this bank, a vial was thawed to check the correct growth of the cell line and the absence of mycoplasma contamination. The cells of the thawed vial were propagated to make a working cell bank and continue the subcultures to mount the activity assay of SEQ ID NO. 1. This consisted of a series of tests in which the cellular response was evaluated with different molecules to determine the most suitable conditions for the assay.
The determined EC50 for SEQ ID NO. 1 was 1147±211 ng/ml (35.1±6.4 nM).
The in vitro biological activity of SEQ ID NO:2, SEQ ID NO:3, SEQ ID NO:4, SEQ ID NO: 8, SEQ ID NO:9, SEQ ID NO: 10, SEQ ID NO:11, SEQ ID NO: 12, SEQ ID NO: 13, SEQ ID NO: 14, SEQ ID NO: 15, and SEQ ID NO:16 was tested via the stimulation of hTLR2 in the cultures of HEK-Blue hTLR2 cells in 96-well plates for 24 h. After collecting the supernatant, the plate was incubated with QUANTI-Blue at 37° C. for 1 h, and absorbance was measured at 620 nm.
To determine the EC50, the absorbance was plotted against the logarithm of protein concentration, and the data was adjusted to a dose-response sigmoidal ligand binding model with 4 parameters. The cell culture medium was used as a negative control, and PAM (synthetic triacylated lipopeptide (Pam3CSK4)) was used as a positive control.

Assay [3] is described as follows: Body weight of mice on high-fat diet (DAG) with intragastric peptide for 12 weeks. It is filed as in vivo, mice (C57BL/6JN). On the procedure: (§1) For all the in vivo testing, male mice of the C57BL/6JN strain between 8 to 10 weeks of age were used, housed in groups of 3 to 5 mice per cage with food and water ad libitum in ventilated racks, and whose microbiota were unified for 4 weeks.
(§2) The mice received either 200 μL of a phosphate buffer solution (PBS) at pH 7.5 (as a vehicle), or 200 μL of the PBS solution, with each of the intragastric treatments daily for 12 weeks. They were fed either a Normal Diet (DN, Harlan, Teklad 2018SX) with 18% of the calories coming from fat, or a High-Fat Diet (DAG, Research Diets, D12491), with 60% of the calories coming from fat.
(§3) All the mice were randomly divided into five experimental groups in order to study the effect of SEQ ID NO: 3 and SEQ ID NO: 2 correctly: • Group 1—Mice with DN that received 200 μl of PBS intragastrically. • Group 2—Mice with DAG that received 200 μl of PBS intragastrically. • Group 3—Mice with DAG that received 200 μl of PBS with SEQ ID NO: 3 intragastrically at a dose of: 2.5 μg/mouse. • Group 4—Mice with DAG that received 200 μl of PBS with SEQ ID NO: 2 intragastrically at a dose of 0.6 μg/mouse (high dose). • Group 5—Mice with DAG that received 200 μl of PBS with SEQ ID NO: 2 intragastrically at a dose of 0.2 μg/mouse (low dose).
The animal weights and feed intakes were recorded weekly.
To determine the metabolic status of the animals before starting the experiment, weight, basal glucose levels, glucose tolerance, and insulin resistance were recorded.

Assay [4] deals with mice fed a high-fat diet. In words: Glucose tolerance test (GTT) in mice fed a high-fat diet. To be noted: 12 weeks; intragastric daily; SEQ ID NO: 3 2.5 μg/mouse, SEQ ID NO: 2 0.6 or 0.2 μg/mouse. It is filed as in vivo, mice (C57BL/6JN). On the procedure:
as §1
(§4) The mice received either 200 μL of a phosphate buffer solution (PBS) at pH 7.5 (as a vehicle), or 200 μL of the PBS solution, with each of the intragastric treatments daily for 12 weeks. They were fed either a Normal Diet (DN, Harlan, Teklad 2018SX) with 18% of the calories coming from fat, or a High-Fat Diet (DAG, Research Diets, D12491), with 60% of the calories coming from fat. […]
The mice were subjected to fasting for 6 hours, and the baseline glucose values in the blood were determined using glucose test strips and a glucometer (Roche's ACCU-CHECK ACTIVE).
Next, the mice received an intraperitoneal injection of 1.8 mg of glucose per gram of body weight, and the blood glucose values were recorded at 15, 30, 60, and 120 minutes after administration.
FIGS. 19A and 19B show the area under the curve (AUC) of the glucose tolerance test of the mice, measured at week 0 and 12.

Assay [5] deals with mice fed a high-fat diet. In words: Insulin resistance test (PRI) in mice fed a high-fat diet. It is filed as in vivo, mice (C57BL/6JN). Particulars: 12 weeks; intragastric daily; SEQ ID NO: 3 2.5 μg/mouse, SEQ ID NO: 2 0.6 or 0.2 μg/mouse. As to the method: as §1, §4
The mice were subjected to fasting for 6 hours and the baseline glucose values were determined, as described above. Subsequently, the mice received an intraperitoneal injection of 1 mU of insulin per gram of body weight, and blood glucose values were recorded at 15, 30, 60, and 120 minutes after administration. The area under the curve (AUC) of the insulin resistance test was calculated considering the glucose decrease between time T0 and T15 using the absolute glucose values, as shown in FIGS. 20A and 20B.

Assay [6] concerns adipose tissue. In words: Cellular infiltrate / inflammatory process in adipose tissue of mice fed a high-fat diet. It is filed as in vivo, mice (C57BL/6JN). On the procedure:
as §1, §2, §3
(§5) To determine the effect of the peptides SEQ ID NO: 2 and SEQ ID NO: 3 in attenuating the inflammatory process in adipose tissue, the cellular infiltrate of the adipose tissue of the mice was quantified after they had been fed DAG.

In assay [7] the test system is IL-1B. The assay is described as follows: Circulating IL-1B levels in mice fed a high-fat diet. It is filed as in vivo, mice (C57BL/6JN). Particulars: 12 weeks; versus DAG; including SEQ ID NO: 2 at low doses. As to the method: as §1, §4, §5
Assay [8] deals with TNFα. The assay is described as follows: Circulating TNFα levels in mice fed a high-fat diet. To be noted: 12 weeks; versus DAG; including SEQ ID NO: 2 at low doses. It is filed as in vivo, mice (C57BL/6JN). On the procedure: as §1, §4, §5
Assay [9] deals with IL-6. In words: IL-6 levels in mice fed a high-fat diet. Particulars: 12 weeks; animals fed DAG. It is filed as in vivo, mice (C57BL/6JN). On the procedure: as §1, §2, §3
Assay [10] concerns leptin. In words: Leptin levels in mice fed a high-fat diet. Particulars: 12 weeks; compared to mice fed only DAG. It is filed as in vivo, mice (C57BL/6JN). On the procedure: as §1, §2
as §3, with “(low dose). […]” for “(low dose).”

In assay [11] the test system is adiponectin. The assay is described as follows: Adiponectin levels in mice fed a high-fat diet. It is filed as in vivo, mice (C57BL/6JN). Particulars: 12 weeks; fall induced by DAG. As to the method: as §1, §2
as §3, with “(low dose). […]” for “(low dose).”

T1 sequence (O60603 21-784): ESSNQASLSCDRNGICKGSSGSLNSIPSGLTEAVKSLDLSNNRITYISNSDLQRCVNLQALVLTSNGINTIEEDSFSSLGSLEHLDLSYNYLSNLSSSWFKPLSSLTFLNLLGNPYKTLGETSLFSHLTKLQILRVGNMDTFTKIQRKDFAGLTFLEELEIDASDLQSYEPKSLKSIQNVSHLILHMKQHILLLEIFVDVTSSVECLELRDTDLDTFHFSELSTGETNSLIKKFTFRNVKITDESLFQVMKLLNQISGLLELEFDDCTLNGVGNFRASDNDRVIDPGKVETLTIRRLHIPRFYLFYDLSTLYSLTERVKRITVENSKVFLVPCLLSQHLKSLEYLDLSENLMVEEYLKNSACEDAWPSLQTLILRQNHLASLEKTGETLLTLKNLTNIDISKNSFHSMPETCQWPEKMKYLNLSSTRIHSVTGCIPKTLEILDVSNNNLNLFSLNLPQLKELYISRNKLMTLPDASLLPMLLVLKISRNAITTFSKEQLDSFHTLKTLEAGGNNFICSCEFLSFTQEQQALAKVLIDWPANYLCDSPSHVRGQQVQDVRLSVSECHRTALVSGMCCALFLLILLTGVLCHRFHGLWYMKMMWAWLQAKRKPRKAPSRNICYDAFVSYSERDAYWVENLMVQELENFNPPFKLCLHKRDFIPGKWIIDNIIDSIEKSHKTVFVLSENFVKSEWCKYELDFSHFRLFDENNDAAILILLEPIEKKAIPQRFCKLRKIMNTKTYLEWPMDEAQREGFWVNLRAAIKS
Sequence of human Toll-like receptor 2 (hTLR2) on HEK-Blue hTLR2 cells (O60603 21-784): as above

B1: peptide SEQ ID NO: 3 (carboxyl terminal domain of SEQ ID NO: 1) (peptide)
chain: QLPIETPANNPEESDEADQAPWTPMPLEIAFQGDRESVLKAMNAITGMQDYLFTVNSIRIRNERMMPPPIANPAAAKPAAAQPATGAASLTPADEAAAPAAPAIQQVIKPYMGKEQVFVQVSLNLVHFNQPKAQEPSED
Regarding B1, a half-maximal effect in assay [1] (EC50) was put at 25.9 nM. Also, in [2] (HEK-Blue hTLR2 cells, 24 h), the “concentration from which hTLR2 is (significantly) stimulated” value is given as 8 nM. In addition, the “relative response compared to PAM” value in assay [2] (from 229 nM, PAM (Pam3CSK4) positive control) turned out to be 107%. Besides, the Average weight in assay [3] (0 weeks (initial state), DAG + SEQ ID NO: 3 group) came out at 21.4 grams; in [3] (12 weeks, DAG + SEQ ID NO: 3, 2.5 μg/mouse intragastric daily) it was 37.9 grams. For the same molecule, the “glucose tolerance (AUC of GTT) versus DAG group” value in assay [4] was “improved glucose tolerance”. The “insulin sensitivity (AUC of insulin resistance test) versus DAG group” value in assay [5] is recorded as “improve insulin sensitivity”. Besides, the “cellular infiltrate of adipose tissue” value in [6] (12 weeks, versus DAG group) is “prevented the increase in cellular infiltrate induced by DAG”. In assay [6] (SEQ ID NO:2 in high or low doses), the “inflammatory process in adipose tissue” value is listed as “attenuate the inflammatory process in adipose tissue”. The “circulating levels of IL-1B” value in assay [7] was “prevented the increase in the circulating levels of IL-1B”. Further, the “circulating levels of TNFα” value in assay [8] is recorded as “prevented the increase in the circulating levels”. In addition, the IL-6 levels entry in [9] is given as “dramatic decrease in IL-6 levels”. For the same molecule, in [10], the leptin secretion result is “decrease in leptin secretion”. Moreover, the adiponectin in circulation entry in assay [11] is “tendency to prevent a fall of adiponectin”.
